Results from paper PMC5854407 (Nature, 2017).

Experiments:
hTRPV6 = target: T1, hTRPV6 (Homo sapiens, UniProt Q9H1D0, R510E); test: Fura-2 AM ratiometric Ca2+ uptake in HEK cells; assay type: cell-based
T1 sequence (Q9H1D0 41-765 R510E): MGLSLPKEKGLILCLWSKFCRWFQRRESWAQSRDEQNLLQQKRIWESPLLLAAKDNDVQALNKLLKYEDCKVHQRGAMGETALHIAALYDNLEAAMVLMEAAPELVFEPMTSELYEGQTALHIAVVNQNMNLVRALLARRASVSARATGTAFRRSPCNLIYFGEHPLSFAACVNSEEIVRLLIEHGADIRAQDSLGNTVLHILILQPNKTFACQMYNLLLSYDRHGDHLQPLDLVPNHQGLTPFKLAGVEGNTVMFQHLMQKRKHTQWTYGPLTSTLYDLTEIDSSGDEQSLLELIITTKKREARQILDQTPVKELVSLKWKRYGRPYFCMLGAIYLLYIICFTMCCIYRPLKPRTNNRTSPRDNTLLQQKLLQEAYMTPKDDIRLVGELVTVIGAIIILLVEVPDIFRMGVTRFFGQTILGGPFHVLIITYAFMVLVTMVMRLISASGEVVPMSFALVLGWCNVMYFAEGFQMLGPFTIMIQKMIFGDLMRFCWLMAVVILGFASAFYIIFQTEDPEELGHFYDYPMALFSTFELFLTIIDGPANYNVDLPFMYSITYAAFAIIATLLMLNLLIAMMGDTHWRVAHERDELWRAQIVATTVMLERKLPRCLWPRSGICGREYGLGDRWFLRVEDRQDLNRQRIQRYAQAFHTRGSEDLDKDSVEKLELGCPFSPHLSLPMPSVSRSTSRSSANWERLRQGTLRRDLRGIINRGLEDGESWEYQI

hTRPV6-R470E (human) = test: cryo-EM structure
[1] = target: rTRPV6* (rat TRPV6 construct previously used for crystallographic studies) (rat); test: cryo-EM structure

**Q.** How did the IC50 (hTRPV6) turn out when `NCCOB(c1ccccc1)c1ccccc1` [2-APB] was run?
**A.** Its IC50 is 85 ± 5 µM.

**Q.** hTRPV6-R470E (natural protein) was tested. Which stoichiometry N (hTRPV6-R470E (human)) did it give?
**A.** The stoichiometry N was 4.

**Q.** For “rTRPV6* (rat TRPV6 construct previously used for crystallographic studies) (natural protein)”, which stoichiometry N [1] is on record?
**A.** The stoichiometry N was 4.
